17 molecules from US20210292393A1 can be followed below.

What all share (conditions): remark: other sources report otherwise
Assay [1] has as its target SARS-CoV-2 full length spike protein, wild type, expressed on the surface of CHO cells (SARS-CoV-2), P0DTC2.
In assay [2] the target is SARS-CoV-2 spike protein (SARS-CoV-2), P0DTC2. The assay can be described thus: HT-SPR, Carterra LSA; mAb coupled to chip, antigen injected; 1:1 fit.
Assay [3] has as its target SARS-CoV-2 full length spike protein (wild-type), conjugated to optically encoded beads (SARS-CoV-2), P0DTC2.
Assay [4] concerns the target SARS-CoV-2 full length spike protein (wild type) (SARS-CoV-2), P0DTC2.
Assay [5] concerns the target SARS-CoV-2 spike (S) protein, full length, wild type, expressed on the surface of CHO cells (SARS-CoV-2), P0DTC2.
Assay [6] has as its target SARS-CoV-2 spike (S) protein (SARS-CoV-2), P0DTC2.

One may read the Kd as the constant that tells how readily two partners part at equilibrium. One may read the koff as a measure of how fast the partners let go of each other. Low values mean a long-lived complex, high ones a short-lived complex. The term kon denotes a measure of how fast the partners come together. Read a low kon as slow association.

Where a chain is given by its changes, count along the chain named. “And” between values parts separate entries of the source, which are not always exact repeats. Identical values can stand only once.

B1: antibody 495 (antibody, V domains shown)
VH: QITLKESGPTLVKPTQTLTLTCTFSGFSLSTSGVGVGWIRQPPGKALEWLALIYWDDDKRYSPSLKSRLTITKDTSKNQVVLIMTNMDPVDTATYYCAHRDSSSWFDLDAFDIWGQGTMVIVSS
VL: QSVLTQPPSVSEAPRQRVTISCSGSSSNIGNNAVNWYQQLPGKAPKLLIYYDDLLPSGVSDRFSGSKSGTSASLAISGLQSEDEADYYCAAWDDRLNGPVFGGGTKLTVL
In the case of B1, in assay [1], the median fluorescence fold over isotype control (fold over isotype) was 1.23 and 0.83. For the same molecule, in assay [2], the Kd turned out to be 0.0718 nM, the koff amounted to 1.55e-05 s⁻¹ and the on-rate (kon) is 216000 M⁻¹ s⁻¹.

B2: antibody 544 (antibody, V domains shown)
VH: QVQLQQWGAGLLKPSETLSLTCAVYGGSFSGYYWSWIRQPPGKGLEWIGEINHSGSTNYNPSLKSRVTISVDTSKNQFSLKLSSVTAADTAVYYCARGFKWFGELLFGAQGTLVTVSS
VL: not shown
B2 came in with a median fluorescence fold over isotype (fold over isotype) in assay [3] of 639. In addition, the median fluorescence fold over isotype control (fold over isotype) in assay [1] amounted to 2.48.

B3: antibody 362 (antibody, V domains shown)
VH: QVQLVESGGGVVQPGRSLRLSCAASGFNLSNYAMHWVRQASGKGLEWVSLISYDGSVKYYTDSVKGRFTVSGDNSKNTLFLQMNSLRPDDSALYYCVRGGVSGPNSFDMWGQGTTVTVSS
VL: DVVMTQSPLSLPVTLGQPATISCRSSQSLVYSDGNTYVNWFQQRPGQSPRRLIYQVSIRASGVPDRFSGSGSGTDFALKISRVEAEDVGVYYCMQGTHWPVTFGQGTKVEIK
Consider B3, for which, in assay [4], the median fluorescence intensity fold over isotype (fold over isotype control) is 503. In assay [5], this molecule registered a median fluorescence fold over isotype (fold over isotype) of 9.45.

B4: antibody 507 (antibody, V domains shown)
VH: QVQLQESGPGLVKPSGTLSLTCAVSGGSISSSNWWSWVRQPPGKGLEWIGEIYHSGNTNYNPSLKSRVTISVDKSKNQFSLKLSSVTAADTAVYYCARREWLRLFDYWGQGTLVTVSS
VL: QSALTQPASVSGSPGQSITISCTGTSSDVGSYNLVSWYQQHPGKAPKLMIYEVSKRPSGVSNRFSGSKSGNTASLTISGLQAEDEADYYCCSYAGSSTYVFGTGTKVTVL
In turn, B4 showed a median fluorescence fold over isotype (fold over isotype) in assay [3] of 571. In addition, the median fluorescence fold over isotype control (fold over isotype) in assay [1] was determined as 1.51.

B5: antibody 267 (antibody, V domains shown)
VH: EVHLVQSGAEMKKPGATVKISCKVSGNTFIDHYIQWVQQAPGKGFEWMGLVDPEDGETIYAEKFQGRVTITADTSRDTAYMELSSLKSEDTAVYYCGTHGDYLDYWGQGTLVTVSS
VL: FYELTQPSSVSVSPGQTALITCSGDVVAKKYARWFQQKAGQAPVLVIYKDTERPSGIPERISGSSSGTTVTLTISGAQVEDEADYYCYSATDNNLVFGGGTKVTVL
B5 showed a binding signal, bead assay (fold over isotype) in assay [4] of 312.

B6: antibody 270 (antibody, V domains shown)
VH: QVQLVQSGAEVKRPGTSVKVSCKTSGYTFTDHFIHWVRQAPGRRLEWMGWINPNSGGTNYAQNFQGRVTMTRDTSITTAYMDLTRLTSDDTAIYYCAREAAYGSGNLNWFDPWGQGTRVTVSS
VL: NFMLTQPHSVSESPGKTVTISCTGSSGSIAANYVHWYQQRPGSAPRTVIYEDNQRPSGVPDRFSGSIDSSSNSASLTISGLKTEDEADYYCQSYDGDSWVFGGGTKLTVL
For B6, in assay [4], the binding signal, bead assay (fold over isotype) worked out at 305.

B7: antibody 505 (antibody, V domains shown)
VH: EVQLVESGGGLVKPGGSLRLSCAASGFTFSSYSMNWVRQAPGKGLEWVSSISSSSSYIYYADSVKGRITISRDNAKNSLYLQMNSLRAEDTAVYYCAREYPNFRAEWLLSPYGMDVWGQGTTVTVSS
VL: QSALTQPASVSGSPGQSITISCTGTSSDVGSYNLVSWYQQHPGKAPKLMIYEVSKRPSGVSNRFSGSKSGNTASLTISGLQAEDEADYYCCSYAGSSTSVKVFGTGTKVTVL
Turning to B7, the median fluorescence fold over isotype (fold over isotype) in assay [3] came to 658. The median fluorescence fold over isotype control (fold over isotype) in assay [1] was 1.55.

B8: antibody 499 (antibody, V domains shown)
VH: EVQLVESGGGLVKPGGSLRLSCAASGFTFSSYSMNWVRQAPGKGLEWVSSISSSSSYIYYADSVKGRFTISRDNAKNSLYLQMNSLRAEDTAVYYCARAPAGIVVGPDYWGQGTLVTVSS
VL: NFMLTQPHSVSESPGKTVTISCTGSSGSIASNYVQWYQQRPGSAPTTVIFEDNQRPSGVPDRFSGSIDSSSNSASLTISGLKTEDEADYYCQSYHSSNPHVVFGGGTKLTVL
On to B8, for which the median fluorescence fold over isotype control (fold over isotype) in assay [1] was 1.35 and 0.9. In assay [2], this molecule returned a Kd of 0.297 nM, a koff of 1.88e-05 s⁻¹ and a kon of 63300 M⁻¹ s⁻¹.

B9: antibody 538 (antibody, V domains shown)
VH: QLQLQESGPGLVKPSETLSLTCTVSGGSISSSSYYWGWIRQPPGKGLEWIGSINYSGSTYYNPSLKSRVTISVDTSKNQFSLKLSSVTAADTAVYYCARYHDYGDDYWGQGTLVTVSS
VL: QLVLTQSPSASASLGASVKLTCTLSSGHSRYAIAWHQQQPEKGPRYLMKLNSDGSHSKGDGIPDRFSGSSSGAERYLTISSLQSEDEADYYCQTWGTGIQVFGGGTKLTVL
Take B9: the median fluorescence fold over isotype (fold over isotype) in assay [3] was 607. In assay [1], the median fluorescence fold over isotype control (fold over isotype) worked out at 1.96.

B10: antibody 521 (antibody, V domains shown)
VH: QVQLVESGGGVVQPGRSLRLSCAASGFTFSSYGMHWVRQAPGKGLEWVAVIWYDGSNKYYADSVKGRFTISRDNSKNTLYLQMNSLRAEDTAVYYCAREGNDYGDYGEWELLGYFDYWGQGTLVTVSS
VL: SYELTQPPSVSVSPGQTARITCSGDALPKKYAYWYQQKSGQAPVLVIYEDSKRPSGIPERFSGSSSGTMATLTISGAQVEDEADYYCYSTDSSGNHRRVFGGGTKLTVL
B10: the median fluorescence fold over isotype control (fold over isotype) in assay [1] was 2.42 and 0.86. In assay [2], this molecule showed a Kd of 9.9 nM, a koff of 0.000299 s⁻¹ and a kon of 30200 M⁻¹ s⁻¹.

B11: antibody 304 (antibody, V domains shown)
VH: EVQLLESGGGLVQPGGSLRLSCAASGFTFSTYAMSWVRQAPGKGLEWVSAISGSGGSTYYADSVKGRFTISRDNSKNTLYLQMNSLRAEDTAVYYCASGYSPDYWGQGTLVTVSS
VL: AIQMTQSPSSLSASVGDRVTITCRASQGIRNDLGWYQQKPGKAPKLLIYAASSLQSGVPSRFSGSGSGTDFTLTISSLQPEDFATYYCLQDYNYPRTFGQGTKVEIK
Turning to B11, the binding signal, bead assay (fold over isotype) in assay [4] is 1.22 and 1.17 and 1.09. In assay [6], this molecule showed a Kd of 3.14 nM, a koff of 0.000274 s⁻¹ and a kon of 87300 M⁻¹ s⁻¹.

B12: antibody 259 (antibody, V domains shown)
VH: EVQLVQSGAEVKKPGATVKISCKVSGYTFTDYYMHWVQQAPGKGLEWMGLVDPEDGETIYAEKFQGRVTITADTSTDTAYMELSSLRSEDTAVYYCATDLLSWKLYCSGGSCPQMDVWGQGTTVTVSS
VL: B11 VL with A1D, L46R, D70E, D91H, Y92N, N93S, R96Q, V104L
B12 gave a binding signal, bead assay (fold over isotype) in assay [4] of 275.

B13: antibody 325 (antibody, V domains shown)
VH: QVQLQESGPGLVKPSQTLSLTCTVSGGSISGGGYYWSWIRQHPGKGLEWIGYIYYSGSTYYNPSLQSRVTISVDTSKNQFSLKLSSVTAADTAVYYCARVGTSSVWYFDYWGQGTLVTVSS
VL: QSALTQPRSVSGSPGQSVTISCTGTSSDVGGYNYVSWYQQHPGKAPKLMIYDVTKRPSGVPDRFSGSKSGNTASLTISGLQAEDEADYYCSSYAGSWVFGGGTKLTVL
Consider B13, for which, in assay [5], the median fluorescence fold over isotype (fold over isotype) was 1.14 and 1.08. For the same molecule, in assay [6], the dissociation constant (Kd) came out at 7.36 nM, the koff is 0.000154 s⁻¹ and the kon was 20900 M⁻¹ s⁻¹.

B14: antibody 322 (antibody, V domains shown)
VH: EVQLVESGGGLVQPGGSLRLSCAASGFTFSSYWMSWVRQAPGKGLEWVANIKQDGSEKYYVDSVKGRFTISRDNAKNSLYLQMNSLRAEDTAVYYCARDEDVAAALDYWGQGTLVTVSS
VL: SYVLTQPPSVSVAPGKTARITCGGNNIGSKSVHWYQQKPGQAPVLVIYYDSDRPSGIPERFSGSNSGNTATLTISRVEAGDEADYYCQVWDSSSDHPERVFGGGTKLTVL
Take B14: the median fluorescence fold over isotype (fold over isotype) in assay [5] was 4.94 and 1.65. In assay [6], the Kd came out at 21.1 nM, the koff was 0.000401 s⁻¹ and the kon turned out to be 19000 M⁻¹ s⁻¹.

B15: antibody 337 (antibody, V domains shown)
VH: QVQLVESGGGVVQPGRSLRLSCAASGFTFSSYGMHWVRQAPGKGLEWVAIIWYDGSNKYYADSVKGRFTISRDNSKNTLYLQMNSLRAEDTAVYYCAKDTGGYCSGGSCYPESYFDYWGQGTLVTVSS
VL: SYVLTQPPSVSVAPGKTARITCGGNNIGSKSVHWYQQKPGQAPVLVIYYDSDRPSGIPERFSGSNSGNTATLTINRVEAGDEADYYCQVWDGSSDHLYVFGTGTKVTVL
Molecule B15 returned a median fluorescence intensity fold over isotype (fold over isotype control) in assay [4] of 756. The molecule further displayed a median fluorescence fold over isotype (fold over isotype) in assay [5] of 2.08.

B16: antibody 551 (antibody, V domains shown)
VH: EVQLVESGGGLVQPGGSLRLSCAASGFTFSSYWMSWVRQAPGKGLEWVANINQDGSDKYYVDSVKGRFTISRDNAKNSLYLQMNSLRAEDTAVYYCARAPGWAAAPTFDYWGQGTLVTVSS
VL: QSALTQPRSVSGSPGQSVTISCTGTSSDVGGYNYVSWYQQHPGKAPKFMIYDVSKRPSGVPDRFSGSKSGNTASLTISGLQAEDEADYYCCSYAGSYTLVVFGGGTKLTVL
Turning to B16, the median fluorescence fold over isotype (fold over isotype) in assay [3] is 649.

B17: antibody 524 (antibody, V domains shown)
VH: QVQLVESGGGVVQPGRSLRLSCAASGFTFSSYAMHWVRQAPGKGLEWVAVISYDGSNKYYADSVKGRFTISRDNSKNTLYLQMNSLRAEDTAVYYCAKAGGGSYYRGFDYWGQGTLVTVSS
VL: QSVLTQPPSVSAAPGQKVTISCSGSNSNIGNNYVSWYQQLPGSAPKLLIYDNDKRPSGIPDRFSGSKSGTSATLGITGLQTGDEADYYCGAWDSSLTALVFGGGTKLTVL
Regarding B17, the median fluorescence fold over isotype control (fold over isotype) in assay [1] is 0.58 and 0.55. For the same molecule, in assay [2], the Kd amounted to 34.6 nM, the koff was 0.00272 s⁻¹ and the kon worked out at 78600 M⁻¹ s⁻¹.
